± gives the uncertainty stated by the source.
Experiment: self-splicing fitness, log relative to wild type (ln ratio); higher = more splicing; Tetrahymena group I intron in knt gene, E. coli kanamycin selection, DiMSum; sequences stand for … in CUCUCU…GGAGGGAAAAGUUAUCAGGCAUGCACCUGGUAGCUAGUCUUUAAACCAAUAGAUUGCAUCGGUUUAAAAGGCAAGACCGUCAAAUUGCGGGAAAGGGGUCAACAGCCGUUCAGUACCAAGUCUCAGGGGAAACUUUGAGAUGGCCUUGCAAAGGGUAUGGUAAUAAGCUGACGGACAUGGUCCUAACCACGCAGCCAAGUCCUAAGUCAACAGAUCUUCUGUUGAUAUGGAUGCAGUUCACAGACUAAAUGUCGGUCGGGGAAGAUGUAUUCUUCUCAUAAGAUAUAGUCGGACCUCUCCUUAAUGGGAGCUAGCGGAUGAAGUGAUGCAACACUGGAGCCGCUGGGAACUAAUUUGUAUGCGAAAGUAUAUUGAUUAGUUUUGGAGUACUCGUGGUCG
How it was run: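 Pooled colonies went to amplicon sequencing on an Illumina HiSeq 2500 after six replicate transformations. The plates were LB agar with 100 μg/mL carbenicillin, 50 μM IPTG and 0.2% rhamnose, with or without 25 μg/mL kanamycin, incubated overnight at 37°C or 30°C. The E. coli BL21(DE3) library had all eight P1ex-region intron nucleotides randomised, the intron placed in the knt kanamycin-resistance gene on pET-22b(+). DiMSum fitness is the error-weighted combination of replicate fold changes, kanamycin against none, normalised to wild type.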

| Sequence | self-splicing fitness (ln) (30 °C) | self-splicing fitness (ln) (37 °C) |
| --- | --- | --- |
| AGACAGCAAUAUUACGUGUA | -1.89 ± 0.078 | -1.61 ± 0.069 |
| AGAGAGCAAUAUUACGAACA | -2.8 ± 0.36 | -2.84 ± 0.31 |
| AGAGAGCAAUAUUACGACAU | -2.476 ± 0.019 | -1.94 ± 0.037 |
| AGAGAGCAAUAUUACGACCG | -2.92 ± 0.4 |  |
| AGAGAGCAAUAUUACGACGA |  | -1.61 ± 0.29 |
| AGAGAGCAAUAUUACGACGU | -1.84 ± 0.15 | -0.382 ± 0.15 |
| AGAGAGCAAUAUUACGAUGG | -4.56 ± 0.36 | -1.17 ± 0.29 |
| AGAGAGCAAUAUUACGCCGA |  | -1.55 ± 0.43 |
| AGAGAGCAAUAUUACGCUGC | -2.3 ± 0.23 | -2.63 ± 0.34 |
| AGAGAGCAAUAUUACGGCAG | -1.51 ± 0.24 | -1.42 ± 0.43 |
| AGAGAGCAAUAUUACGUAGU | -3.49 ± 0.3 | -2.47 ± 0.26 |
| AGAGAGCAAUAUUACGUCCG |  | -1.63 ± 0.33 |
| AGAGAGCAAUAUUACGUGUC |  | -2.33 ± 0.37 |
| AGAGAGCAAUAUUACGUUCG | -2.2 ± 0.16 | -2.07 ± 0.23 |
| AGAUAGCAAUAUUACGAAAA | -2.71 ± 0.24 | -2.12 ± 0.22 |
| AGAUAGCAAUAUUACGACAG | -2.26 ± 0.15 | -0.465 ± 0.18 |
| AGAUAGCAAUAUUACGACCU | 0.592 ± 0.11 | 0.469 ± 0.15 |
| AGAUAGCAAUAUUACGAUUC | -1.7 ± 0.12 | -0.442 ± 0.16 |
| AGAUAGCAAUAUUACGCAAA | -2.81 ± 0.23 | -1.75 ± 0.24 |
| AGAUAGCAAUAUUACGCAUC | -1.84 ± 0.3 | -1.91 ± 0.36 |
| AGAUAGCAAUAUUACGCCCA | -1.03 ± 0.21 | -0.502 ± 0.23 |
| AGAUAGCAAUAUUACGCCUU | -0.881 ± 0.09 | -0.255 ± 0.11 |
| AGAUAGCAAUAUUACGCGCG | 0.343 ± 0.18 | -0.618 ± 0.2 |
| AGAUAGCAAUAUUACGCGGU | -2.93 ± 0.17 | -2.28 ± 0.15 |
| AGAUAGCAAUAUUACGGAAU | -2.07 ± 0.15 | -0.731 ± 0.14 |

| Sequence | self-splicing fitness (ln) (30 °C) | self-splicing fitness (ln) (37 °C) |
| --- | --- | --- |
| AGAUAGCAAUAUUACGGAUC | -1.92 ± 0.21 | -0.641 ± 0.2 |
| AGAUAGCAAUAUUACGGCCU | -0.604 ± 0.11 | 0.606 ± 0.14 |
| AGAUAGCAAUAUUACGGCGC | -1.32 ± 0.14 | -0.0937 ± 0.15 |
| AGAUAGCAAUAUUACGUAUA | -1.91 ± 0.19 | -2.27 ± 0.28 |
| AGAUAGCAAUAUUACGUCUA | -0.934 ± 0.24 | -0.474 ± 0.2 |
| AGAUAGCAAUAUUACGUGCA | -0.725 ± 0.13 | -0.616 ± 0.15 |
| AGAUAGCAAUAUUACGUGCC | -0.685 ± 0.2 | -0.528 ± 0.22 |
| AGAUAGCAAUAUUACGUGUU | -2.97 ± 0.13 | -1.1 ± 0.11 |
| AGCAAGCAAUAUUACGAAGA | -3.3 ± 0.31 | -1.74 ± 0.15 |
| AGCAAGCAAUAUUACGAAUU | -2.55 ± 0.08 | -1.68 ± 0.09 |
| AGCAAGCAAUAUUACGACGC | -1.09 ± 0.11 | 0.048 ± 0.12 |
| AGCAAGCAAUAUUACGACGU | -0.267 ± 0.075 | 0.91 ± 0.093 |
| AGCAAGCAAUAUUACGAGAC | -4.19 ± 0.36 | -2.81 ± 0.21 |
| AGCAAGCAAUAUUACGAGCA | -0.456 ± 0.14 | -0.101 ± 0.14 |
| AGCAAGCAAUAUUACGAGCU | -3.42 ± 0.17 | -2.15 ± 0.21 |
| AGCAAGCAAUAUUACGAGUG | -1.15 ± 0.051 | -0.683 ± 0.06 |
| AGCAAGCAAUAUUACGAUUA | -1.56 ± 0.093 | -0.818 ± 0.081 |
| AGCAAGCAAUAUUACGCAAG | -2.4 ± 0.2 | -2.11 ± 0.26 |
| AGCAAGCAAUAUUACGCAUC | -2.72 ± 0.093 | -3.73 ± 0.24 |
| AGCAAGCAAUAUUACGCCCU | -2.12 ± 0.26 | -0.679 ± 0.36 |
| AGCAAGCAAUAUUACGCCUG | -3.23 ± 0.27 | -2.54 ± 0.42 |
| AGCAAGCAAUAUUACGCGAG | -3.61 ± 0.16 | -2.87 ± 0.19 |
| AGCAAGCAAUAUUACGCGCC | -3.19 ± 0.34 | -2.46 ± 0.32 |
| AGCAAGCAAUAUUACGCGGG | -3.87 ± 0.21 | -3.71 ± 0.26 |
| AGCAAGCAAUAUUACGCUAG | -4.08 ± 0.25 | -2.1 ± 0.22 |

| Sequence | self-splicing fitness (ln) (30 °C) | self-splicing fitness (ln) (37 °C) |
| --- | --- | --- |
| AGCAAGCAAUAUUACGCUGA | -2.22 ± 0.14 | -2.07 ± 0.17 |
| AGCAAGCAAUAUUACGCUGU | -2.69 ± 0.12 | -0.265 ± 0.12 |
| AGCAAGCAAUAUUACGCUUU | -2.23 ± 0.17 | -1.55 ± 0.12 |
| AGCAAGCAAUAUUACGGAAG | -3.35 ± 0.25 | -2.32 ± 0.26 |
| AGCAAGCAAUAUUACGGAGU | -2.98 ± 0.13 | -1.6 ± 0.12 |
| AGCAAGCAAUAUUACGGCAU | -0.0513 ± 0.084 | -0.204 ± 0.092 |
| AGCAAGCAAUAUUACGGGGG | -3.78 ± 0.15 | -2.45 ± 0.19 |
| AGCAAGCAAUAUUACGGUCG | -0.327 ± 0.1 | 0.74 ± 0.13 |
| AGCAAGCAAUAUUACGGUGA | -1.88 ± 0.11 | -0.835 ± 0.093 |
| AGCAAGCAAUAUUACGGUUC | -3.75 ± 0.17 | -3.42 ± 0.25 |
| AGCAAGCAAUAUUACGGUUU | -1.28 ± 0.051 | -0.398 ± 0.066 |
| AGCAAGCAAUAUUACGUAAG | -2.47 ± 0.097 | -0.897 ± 0.12 |
| AGCAAGCAAUAUUACGUCAC | -2.89 ± 0.16 | -1.88 ± 0.18 |
| AGCAAGCAAUAUUACGUCGG | -2.93 ± 0.19 | -1.59 ± 0.19 |
| AGCAAGCAAUAUUACGUCGU | -1.72 ± 0.12 | -0.897 ± 0.16 |
| AGCAAGCAAUAUUACGUUGA | -2.95 ± 0.12 | -1.37 ± 0.1 |
| AGCCAGCAAUAUUACGAAAA |  | -1.63 ± 0.24 |
| AGCCAGCAAUAUUACGAACC | -0.758 ± 0.12 | -0.0185 ± 0.11 |
| AGCCAGCAAUAUUACGACAC | -2.83 ± 0.28 | -1.55 ± 0.27 |
| AGCCAGCAAUAUUACGACCU | 0.00818 ± 0.069 | 0.00767 ± 0.083 |
| AGCCAGCAAUAUUACGACUG | -2.72 ± 0.091 | -1.14 ± 0.095 |
| AGCCAGCAAUAUUACGAUAG | -4.04 ± 0.28 | -2.35 ± 0.24 |
| AGCCAGCAAUAUUACGCCGU | -2.54 ± 0.12 | -1.76 ± 0.13 |
| AGCCAGCAAUAUUACGCGGA | -3.48 ± 0.19 | -2.23 ± 0.12 |
| AGCCAGCAAUAUUACGCGGC | -3.54 ± 0.25 | -3.42 ± 0.31 |

| Sequence | self-splicing fitness (ln) (30 °C) | self-splicing fitness (ln) (37 °C) |
| --- | --- | --- |
| AGCCAGCAAUAUUACGCGUU | -2.17 ± 0.12 | -0.95 ± 0.12 |
| AGCCAGCAAUAUUACGCUCC | -2.35 ± 0.16 | -2.51 ± 0.21 |
| AGCCAGCAAUAUUACGCUGG | -4.12 ± 0.26 | -2.32 ± 0.26 |
| AGCCAGCAAUAUUACGGACG | 0.121 ± 0.072 | 0.405 ± 0.094 |
| AGCCAGCAAUAUUACGGAUA | -1.63 ± 0.11 | -1.51 ± 0.12 |
| AGCCAGCAAUAUUACGGCAU | -1.31 ± 0.099 | -1.15 ± 0.12 |
| AGCCAGCAAUAUUACGGGCU | -4.03 ± 0.25 | -2.5 ± 0.21 |
| AGCCAGCAAUAUUACGGUGU | -1.99 ± 0.084 | -2.51 ± 0.12 |
| AGCCAGCAAUAUUACGUAGC | -3.01 ± 0.14 | -2.05 ± 0.15 |
| AGCCAGCAAUAUUACGUCAC |  | -2.15 ± 0.44 |
| AGCCAGCAAUAUUACGUGCU | -3.62 ± 0.18 | -2.06 ± 0.21 |
| AGCCAGCAAUAUUACGUUUA | -2.7 ± 0.35 | -2.48 ± 0.38 |
| AGCGAGCAAUAUUACGAAGG | -4.58 ± 0.26 | -2.09 ± 0.15 |
| AGCGAGCAAUAUUACGAGUA | -1.68 ± 0.26 | -1.18 ± 0.29 |
| AGCGAGCAAUAUUACGCAGA | -2.67 ± 0.24 | -2.88 ± 0.24 |
| AGCGAGCAAUAUUACGCGAC | -2.33 ± 0.27 |  |
| AGCGAGCAAUAUUACGCGAU | -1.78 ± 0.25 | -2.2 ± 0.36 |
| AGCGAGCAAUAUUACGCGGU |  | -2.53 ± 0.32 |
| AGCGAGCAAUAUUACGCUUA | -3.13 ± 0.27 | 0.422 ± 0.17 |
| AGCGAGCAAUAUUACGGACA | -2.53 ± 0.37 | -2.94 ± 0.34 |
| AGCGAGCAAUAUUACGGACG |  | -1.9 ± 0.36 |
| AGCGAGCAAUAUUACGGCUU | -2.59 ± 0.12 | -2.02 ± 0.21 |
| AGCGAGCAAUAUUACGGGUC | -2.01 ± 0.13 | -2.66 ± 0.25 |
